Assay results from patent US20160122429A1.

Tests used:
Experiment in all cases: cell-based or functional assay
[1] = target: human TNFα (soluble) (human) (UniProt P01375)
[2] = target: human non-cleavable membrane bound TNFα on CHO cells (human) (UniProt P01375)
human IL-23 (human) = human IL-23 (human) (UniProt Q9NPF7)
Chain of human IL-23 (human) (Q9NPF7 20-189, chain 1 of 2): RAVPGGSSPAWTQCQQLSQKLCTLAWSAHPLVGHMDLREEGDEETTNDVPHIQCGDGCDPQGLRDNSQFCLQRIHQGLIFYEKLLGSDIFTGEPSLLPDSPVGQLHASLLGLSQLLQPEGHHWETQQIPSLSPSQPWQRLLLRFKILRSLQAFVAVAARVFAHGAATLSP
Chain of human IL-23 (human) (P29460 23-328, chain 2 of 2, further chain): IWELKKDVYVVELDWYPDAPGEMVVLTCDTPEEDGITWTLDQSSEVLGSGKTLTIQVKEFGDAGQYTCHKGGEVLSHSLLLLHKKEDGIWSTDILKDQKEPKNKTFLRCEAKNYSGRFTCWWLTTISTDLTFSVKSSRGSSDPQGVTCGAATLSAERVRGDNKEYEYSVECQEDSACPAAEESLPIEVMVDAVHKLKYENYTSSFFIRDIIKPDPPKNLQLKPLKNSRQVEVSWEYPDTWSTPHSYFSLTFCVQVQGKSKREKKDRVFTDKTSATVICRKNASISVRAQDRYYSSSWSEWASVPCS

Chain of human TNFα (soluble) (human) (P01375 77-233 limits assumed): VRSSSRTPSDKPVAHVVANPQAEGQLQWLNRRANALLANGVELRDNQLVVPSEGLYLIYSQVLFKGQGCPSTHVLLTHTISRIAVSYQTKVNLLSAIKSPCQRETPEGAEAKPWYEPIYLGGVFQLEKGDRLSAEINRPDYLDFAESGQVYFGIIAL
Chain of human non-cleavable membrane bound TNFα on CHO cells (human) (P01375 whole entry): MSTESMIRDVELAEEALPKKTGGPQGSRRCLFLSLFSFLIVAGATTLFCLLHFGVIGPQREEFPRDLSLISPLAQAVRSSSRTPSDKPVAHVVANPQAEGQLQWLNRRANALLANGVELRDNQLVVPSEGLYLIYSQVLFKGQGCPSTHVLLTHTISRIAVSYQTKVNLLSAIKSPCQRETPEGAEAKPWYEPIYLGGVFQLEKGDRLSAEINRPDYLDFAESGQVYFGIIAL

CXCL1 Level (pg/mL) in plasma of mice challenged with human TNFα [1] | mIL22 Level (pg/mL) in plasma of mice challenged with human IL-23 (human IL-23 (human)) | Substance | inhibition of killing of L929 cells by human non-cleavable membrane bound TNFα CHO cells (IC50, MTT assay) [2]
633 pg/mL |  | Adalimumab with IgG1 isotype (parental TNFα antibody) | 0.581 nM
2420 pg/mL | 132 pg/mL | human IgG1 isotype control antibody | 
